Experimental data published in US11554097B2, “Recombinant production of hybrid lipid-biopolymer materials that self-assemble and encapsulate agents” (Duke University, priority 2017, dated 2023).
Marks after values point to notes of the source that are not given here.

Columns and labels:
Type in all cases: physicochemical
[1] = UV-Vis turbidity, temperature-triggered LCST phase transition
Experimental: We investigated the temperature-triggered phase-transition of each construct by recording the optical density of the protein solution at 350 nm as the temperature is ramped up and down on a temperature-controlled UV-Vis spectrophotometer (Cary 300 Bio, Varian Instruments, Palo Alto, Calif.) (FIG. 10-FIG. 12). The transition temperature (T) is defined as the inflection point of the turbidity profile and was calculated as the maximum of the first derivative of OD350 versus temperature, which was determined using Igor Pro software (FIG. 10). Turbidity profiles for each sample were measured in PBS at concentrations between 12.5 and 250 μM. For the non-myristoylated control sample, ELP90A,40, the transition temperatures at these concentrations were well above 80° C. Consequently, their […] values were monitored in 1 M NaCl, which served to reduce the T into a temperature range that is experimentally accessible.
We next used UV-vis spectrophotometry to evaluate whether the lipid-ELP hybrid retained the LCST phase behavior of its parent ELP. The absorbance at 350 nm was monitored as the solution temperature was ramped up and then down at a rate of 1° C./min. […] The transition temperature (Tt) is defined as the inflection point of absorbance versus temperature, calculated as the maximum of the curve's first derivative (FIG. 2D, arrow).

[2] = Dynamic and static light scattering of self-assembled M-ELPs; settings: for Hydrodynamic Radius, Day 0, Rh: Day 0, freshly filtered; for Hydrodynamic Radius, Day 0, Rh / Second Virial Coefficient A2 / Shape Factor, ρ, Rg/Rh: PBS; for Second Virial Coefficient A2 / Shape Factor, ρ, Rg/Rh: full Zimm plots; for Aggregation Number, Nagg, MWparticle/Munimer: partial Zimm plots, Day 0; for hydrodynamic radius (Rh) by DLS: filtered samples in PBS at 25° C.
Experimental: Characterization of myristoylated and non-myristoylated ELPs: Dynamic light scattering (DLS) studies were carried out to investigate the self-assembly of various myristoylated ELPs in aqueous solution. Prior to analysis, samples were prepared in PBS at a concentration of 50 μM, and filtered through a 0.22 μm polyvinylidene fluoride membrane (Durapore) directly into a quartz DLS cell. DLS experiments were conducted in a temperature-controlled DynaPro Microsampler (Wyatt Technologies). Measurements were obtained over a temperature range of 15 to 20° C. using 1° C. steps and at 25° C. 18 acquisitions of 5 s each were collected for every temperature point. Autocorrelation intensities at 15° C. were fitted using the regularization model and then depicted as a population size distribution histogram (FIG. 13) and intensity size distribution (FIG. 14) using Wyatt Dynamics software.
Static light scattering (SLS) studies were carried out to quantify the Rg, Rh, and Nagg of myristoylated ELPs in aqueous solution. Samples were prepared in PBS at concentration ranging from 0.5-5 mg/mL and filtered through a 0.22 μm polyvinylidene fluoride membrane (Durapore) directly into a 10 mm, disposable borosilicate glass tube (Fisher Scientific). Experiments were performed using an ALV/CGS-3 goniometer system (Germany). For M-ELP90A,120 and M-ELP90A,80, as well as for M-ELP90A,40 and M-ELP100V,40 at early time points, measurements were obtained at 25° C. for angles between 30 and 150° C. and made at 5° C. increments with 3 runs of 10 s. Smaller angles (20-45° C.) were used to measure the 40-mer ELPs at later time points, after they had matured to their larger rod-like shape. Full Zimm plots were created by conducting SLS for each construct at different concentrations ranging from 25 μM to 100 μM. These Zimm plots were created using SLS data and ALVStat software after the refractive index increment (dn/dc) was calculated (FIG. 15). These plots provided the second virial coefficient and Rg and from which shape factor was calculated (TABLE 1). Partial Zimm plots were used to calculate Nagg at 1 mg/mL.

[3] = DLS kinetics study of self-assembly; settings: 50 μM in PBS, room temperature, after filtering
Experimental: Thus, we wanted to take more frequent light scattering measurements to track their changing size. Larger particles scatter more light, thus, we tracked intensity via DLS to monitor the size of the 40-mer M-ELPs' self-assembly.
The 40-mer M-ELPs were prepared at 50 μM in PBS and filtered directly into the instrument's quartz cell. The instrument was pre-set to room temperature and, immediately after filtering, the sample was measured periodically over 24 h for both constructs and out to 1 week for M-ELP90A,40. While M-ELP90A,40 takes 144-168 h to reach equilibrium (FIG. 17A), M-ELP100V,40 appears to do so more quickly, by 24 h after filtering (FIG. 17B).

[4] = Cryo-TEM imaging of self-assembled structures; settings: PBS, filtered
Experimental: Cryo-transmission electron microscopy (TEM) experiments were performed at Duke University's Shared Materials Instrumentation Facility and at Thermo Fisher Scientific (Formerly FEI). Lacey holey carbon grids (Ted Pella, Redding, Calif.) were glow discharged in a PELCO EasiGlow Cleaning System (Ted Pella, Redding, Calif.). After filtering the samples, a 3 μL drop (1 mg/mL of each construct) at 25° C. (below the Tt for M-ELP constructs) was deposited onto the grid, blotted for 3 s with an offset of −3 mm, and vitrified in liquid ethane using the Vitrobot Mark III (FEI, Eindhoven, Netherlands). The sample chamber was maintained at 100% relative humidity to prevent sample evaporation. Grids were transferred to a Gatan 626 cryoholder (Gatan, Pleasanton, Calif.) and imaged with an FEI Tecnai G^2 Twin TEM (FEI, Eindhoven, Netherlands), which was operated at 80 keV.

| Molecule | transition temperature (Tt) ([1]; PBS, 12.5 to 250 μM) | Refractive Index Increment dn/dc [2] [cm^3 g^−1] | Hydrodynamic Radius, Day 0, Rh [2] [nm] | Second Virial Coefficient A2 [2] | Shape Factor, ρ, Rg/Rh [2] | Aggregation Number, Nagg, MWparticle/Munimer [2] | time to reach equilibrium of self-assembly [3] [h] | morphology of self-assembled structure [4] | hydrodynamic radius (Rh) by DLS [2] [nm] | suppression of Tt by myristoylation ([1]; versus unmyristoylated ELP) [°C] |
| --- | --- | --- | --- | --- | --- | --- | --- | --- | --- | --- |
| ELP90A,40: non-myristoylated control sample, 40 repeats (SEQ ID NO: 36) (protein) MGLYASKLFSNLGAGVPGAGVPGVGVPGAGVPGAGVPGAGVPGAGVPGAGVPGAGVPGAGVPGAGVPGAGVPGVGVPGAGVPGAGVPGAGVPGAGVPGAGVPGAGVPGAGVPGAGVPGAGVPGVGVPGAGVPGAGVPGAGVPGAGVPGAGVPGAGVPGAGVPGAGVPGAGVPGVGVPGAGVPGAGVPGAGVPGAGVPGAGVPGAGVPGAGVPG | above 80 °C | – | – | – | – | – | – | – | – | – |
| M-ELP90A,40: myristoylated ELP, 90% alanine, 10% valine, 40 pentapeptide repeats (SEQ ID NO: 36) (conjugate, N-terminal myristoylation) MGLYASKLFSNLGAGVPGAGVPGVGVPGAGVPGAGVPGAGVPGAGVPGAGVPGAGVPGAGVPGAGVPGAGVPGVGVPGAGVPGAGVPGAGVPGAGVPGAGVPGAGVPGAGVPGAGVPGAGVPGVGVPGAGVPGAGVPGAGVPGAGVPGAGVPGAGVPGAGVPGAGVPGAGVPGVGVPGAGVPGAGVPGAGVPGAGVPGAGVPGAGVPGAGVPG | – | 0.1669 | 81.9 | −2.30 × 10^−8 mol dm^3 g^−2 | 1.29 | 137^b | 144 to 168 | – | – | – |
| M-ELP90A,80: myristoylated ELP, same composition (90% alanine, 10% valine), 80 pentapeptide repeats (SEQ ID NO: 35) (conjugate, N-terminal myristoylation) MGLYASKLFSNLGAGVPGAGVPGVGVPGAGVPGAGVPGAGVPGAGVPGAGVPGAGVPGAGVPGAGVPGAGVPGVGVPGAGVPGAGVPGAGVPGAGVPGAGVPGAGVPGAGVPGAGVPGAGVPGVGVPGAGVPGAGVPGAGVPGAGVPGAGVPGAGVPGAGVPGAGVPGAGVPGVGVPGAGVPGAGVPGAGVPGAGVPGAGVPGAGVPGAGVPGAGVPGAGVPGVGVPGAGVPGAGVPGAGVPGAGVPGAGVPGAGVPGAGVPGAGVPGAGVPGVGVPGAGVPGAGVPGAGVPGAGVPGAGVPGAGVPGAGVPGAGVPGAGVPGVGVPGAGVPGAGVPGAGVPGAGVPGAGVPGAGVPGAGVPGAGVPGAGVPGVGVPGAGVPGAGVPGAGVPGAGVPGAGVPGAGVPGAGVPG | – | 0.1660 | 31.2 | −5.58 × 10^−9 mol dm^3 g^−2 | 1.00 | 48 | – | spherical micelles | – | – |
| M-ELP90A,120: myristoylated ELP: Arf2 recognition sequence fused to 120 repeats of VPGXG, X 90% alanine and 10% valine (SEQ ID NO: 34) (conjugate, N-terminal myristoylation) MGLYASKLFSNLGAGVPGAGVPGVGVPGAGVPGAGVPGAGVPGAGVPGAGVPGAGVPGAGVPGAGVPGAGVPGVGVPGAGVPGAGVPGAGVPGAGVPGAGVPGAGVPGAGVPGAGVPGAGVPGVGVPGAGVPGAGVPGAGVPGAGVPGAGVPGAGVPGAGVPGAGVPGAGVPGVGVPGAGVPGAGVPGAGVPGAGVPGAGVPGAGVPGAGVPGAGVPGAGVPGVGVPGAGVPGAGVPGAGVPGAGVPGAGVPGAGVPGAGVPGAGVPGAGVPGVGVPGAGVPGAGVPGAGVPGAGVPGAGVPGAGVPGAGVPGAGVPGAGVPGVGVPGAGVPGAGVPGAGVPGAGVPGAGVPGAGVPGAGVPGAGVPGAGVPGVGVPGAGVPGAGVPGAGVPGAGVPGAGVPGAGVPGAGVPGAGVPGAGVPGVGVPGAGVPGAGVPGAGVPGAGVPGAGVPGAGVPGAGVPGAGVPGAGVPGVGVPGAGVPGAGVPGAGVPGAGVPGAGVPGAGVPGAGVPGAGVPGAGVPGVGVPGAGVPGAGVPGAGVPGAGVPGAGVPGAGVPGAGVPGAGVPGAGVPGVGVPGAGVPGAGVPGAGVPGAGVPGAGVPGAGVPGAGVPGY | – | 0.1515 | 22.7 | −9.23 × 10^−9 mol dm^3 g^−2 | 0.98 | 29 | – | spherical micelles | ~22 | ~20 |
| ELP90A,120: non-myristoylated control, recognition sequence-ELP grown without NMT (SEQ ID NO: 34) (protein) MGLYASKLFSNLGAGVPGAGVPGVGVPGAGVPGAGVPGAGVPGAGVPGAGVPGAGVPGAGVPGAGVPGAGVPGVGVPGAGVPGAGVPGAGVPGAGVPGAGVPGAGVPGAGVPGAGVPGAGVPGVGVPGAGVPGAGVPGAGVPGAGVPGAGVPGAGVPGAGVPGAGVPGAGVPGVGVPGAGVPGAGVPGAGVPGAGVPGAGVPGAGVPGAGVPGAGVPGAGVPGVGVPGAGVPGAGVPGAGVPGAGVPGAGVPGAGVPGAGVPGAGVPGAGVPGVGVPGAGVPGAGVPGAGVPGAGVPGAGVPGAGVPGAGVPGAGVPGAGVPGVGVPGAGVPGAGVPGAGVPGAGVPGAGVPGAGVPGAGVPGAGVPGAGVPGVGVPGAGVPGAGVPGAGVPGAGVPGAGVPGAGVPGAGVPGAGVPGAGVPGVGVPGAGVPGAGVPGAGVPGAGVPGAGVPGAGVPGAGVPGAGVPGAGVPGVGVPGAGVPGAGVPGAGVPGAGVPGAGVPGAGVPGAGVPGAGVPGAGVPGVGVPGAGVPGAGVPGAGVPGAGVPGAGVPGAGVPGAGVPGAGVPGAGVPGVGVPGAGVPGAGVPGAGVPGAGVPGAGVPGAGVPGAGVPGY | – | – | – | – | – | – | – | – | 6.2 | – |
| M-ELP100V,40: myristoylated ELP with 40 repeats of VPGXG where X is 100% valine (SEQ ID NO: 37) (conjugate, N-terminal myristoylation) MGLYASKLFSNLGVGVPGVGVPGVGVPGVGVPGVGVPGVGVPGVGVPGVGVPGVGVPGVGVPGVGVPGVGVPGVGVPGVGVPGVGVPGVGVPGVGVPGVGVPGVGVPGVGVPGVGVPGVGVPGVGVPGVGVPGVGVPGVGVPGVGVPGVGVPGVGVPGVGVPGVGVPGVGVPGVGVPGVGVPGVGVPGVGVPGVGVPGVGVPGVGVPGVGVPG | – | 0.1258 | 80.3 | – | 1.30 | 201^b | ≤ 24 | rod-like micelles | – | – |
